Measurements: patent US20240287172A1 (SCIRHOM, published 2024)

Assays:
[1] = target: T1, hiR2-FL-S537E-T7 (human, UniProt Q6PJF5 1-856); assay: FACS on MEF-DKO cells
T1 sequence: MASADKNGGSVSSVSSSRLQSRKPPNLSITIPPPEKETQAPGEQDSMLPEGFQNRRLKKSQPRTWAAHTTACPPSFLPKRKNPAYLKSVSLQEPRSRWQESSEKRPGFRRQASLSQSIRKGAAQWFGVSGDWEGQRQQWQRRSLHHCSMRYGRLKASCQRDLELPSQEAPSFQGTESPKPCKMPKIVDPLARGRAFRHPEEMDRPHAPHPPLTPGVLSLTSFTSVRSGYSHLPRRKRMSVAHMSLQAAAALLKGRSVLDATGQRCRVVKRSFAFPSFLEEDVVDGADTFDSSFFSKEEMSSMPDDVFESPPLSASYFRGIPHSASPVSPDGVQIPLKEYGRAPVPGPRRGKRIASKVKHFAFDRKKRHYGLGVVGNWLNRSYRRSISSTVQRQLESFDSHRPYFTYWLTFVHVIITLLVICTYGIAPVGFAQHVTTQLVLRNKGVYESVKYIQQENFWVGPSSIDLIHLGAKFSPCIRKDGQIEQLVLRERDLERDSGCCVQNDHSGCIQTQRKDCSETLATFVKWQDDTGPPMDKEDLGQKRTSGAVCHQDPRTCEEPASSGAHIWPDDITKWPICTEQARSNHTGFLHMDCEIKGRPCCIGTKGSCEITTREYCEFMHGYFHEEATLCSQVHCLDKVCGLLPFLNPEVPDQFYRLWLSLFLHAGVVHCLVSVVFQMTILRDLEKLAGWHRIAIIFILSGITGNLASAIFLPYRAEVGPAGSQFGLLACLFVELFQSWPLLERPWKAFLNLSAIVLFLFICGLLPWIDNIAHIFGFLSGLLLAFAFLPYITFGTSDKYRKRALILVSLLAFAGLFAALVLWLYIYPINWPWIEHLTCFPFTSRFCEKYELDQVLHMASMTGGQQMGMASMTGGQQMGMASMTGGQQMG

[2] = target: T2, hiR2-FL-K536A-T7 (human, UniProt Q6PJF5 1-856); assay: FACS on MEF-DKO-hiR2-FL-K536A-T7 cells
T2 construct: on MEF-DKO cells
T2 sequence: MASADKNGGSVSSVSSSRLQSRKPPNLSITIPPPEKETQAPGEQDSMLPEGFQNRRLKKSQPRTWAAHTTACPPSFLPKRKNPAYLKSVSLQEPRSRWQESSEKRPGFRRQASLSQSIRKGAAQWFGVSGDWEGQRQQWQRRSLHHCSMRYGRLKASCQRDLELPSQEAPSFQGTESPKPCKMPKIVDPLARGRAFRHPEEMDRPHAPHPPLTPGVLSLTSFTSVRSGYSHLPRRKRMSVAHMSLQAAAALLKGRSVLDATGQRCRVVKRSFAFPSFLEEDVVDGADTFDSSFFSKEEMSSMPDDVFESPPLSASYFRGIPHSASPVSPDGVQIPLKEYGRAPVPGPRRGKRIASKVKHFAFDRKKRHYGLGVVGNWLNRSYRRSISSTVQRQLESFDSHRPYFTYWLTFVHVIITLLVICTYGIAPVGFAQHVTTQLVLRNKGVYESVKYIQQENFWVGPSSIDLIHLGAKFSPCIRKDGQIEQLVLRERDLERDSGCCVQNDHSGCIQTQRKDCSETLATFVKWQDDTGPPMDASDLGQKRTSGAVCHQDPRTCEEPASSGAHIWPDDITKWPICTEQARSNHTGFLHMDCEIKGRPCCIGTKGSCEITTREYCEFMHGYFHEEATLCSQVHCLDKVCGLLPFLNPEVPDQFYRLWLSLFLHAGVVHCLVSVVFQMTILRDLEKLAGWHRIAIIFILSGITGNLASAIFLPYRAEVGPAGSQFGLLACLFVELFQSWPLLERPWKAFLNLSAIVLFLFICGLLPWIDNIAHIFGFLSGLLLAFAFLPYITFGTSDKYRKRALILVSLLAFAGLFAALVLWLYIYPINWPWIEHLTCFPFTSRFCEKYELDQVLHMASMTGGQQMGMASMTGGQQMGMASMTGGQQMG

[3] = target: T3, human iRhom1, endogenously expressed (human, UniProt Q96CC6 1-855); assay: FACS on RH-30 cells (iRhom1-positive, not iRhom2-positive)
T3 construct: also called iRhom1 on RH-30 cells
T3 sequence: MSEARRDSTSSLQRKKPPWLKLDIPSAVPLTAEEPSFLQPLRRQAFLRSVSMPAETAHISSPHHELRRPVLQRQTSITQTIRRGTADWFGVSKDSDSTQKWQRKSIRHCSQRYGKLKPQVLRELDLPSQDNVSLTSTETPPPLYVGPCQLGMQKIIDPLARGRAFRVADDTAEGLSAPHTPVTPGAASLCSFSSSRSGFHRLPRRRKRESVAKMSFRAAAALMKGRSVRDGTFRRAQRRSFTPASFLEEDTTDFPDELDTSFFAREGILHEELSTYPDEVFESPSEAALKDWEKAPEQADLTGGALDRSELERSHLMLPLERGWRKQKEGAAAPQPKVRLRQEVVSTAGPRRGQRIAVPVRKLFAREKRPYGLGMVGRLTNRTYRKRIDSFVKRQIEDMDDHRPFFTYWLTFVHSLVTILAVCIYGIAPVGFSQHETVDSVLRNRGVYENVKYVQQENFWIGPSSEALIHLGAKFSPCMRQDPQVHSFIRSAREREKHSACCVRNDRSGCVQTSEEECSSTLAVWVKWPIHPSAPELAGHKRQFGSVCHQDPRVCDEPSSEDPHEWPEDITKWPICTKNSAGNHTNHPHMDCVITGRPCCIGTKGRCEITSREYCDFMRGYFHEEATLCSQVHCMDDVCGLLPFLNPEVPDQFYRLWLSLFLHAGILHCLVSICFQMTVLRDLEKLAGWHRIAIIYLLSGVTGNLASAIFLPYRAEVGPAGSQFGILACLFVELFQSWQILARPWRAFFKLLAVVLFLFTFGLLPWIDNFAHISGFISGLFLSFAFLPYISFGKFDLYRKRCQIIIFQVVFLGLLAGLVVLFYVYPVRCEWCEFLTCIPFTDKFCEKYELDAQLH

B1: antibody 34 (antibody, V domains shown)
VH: QVTLKESGPGILQPSQTLSLTCSFSGFSLSTFSLGVGWIRQSSGKGLEWLAHIWWDDEKYYNPALKSRLTISKDTSKNQVFLKIANVDAADTATYYCARAYYSKSYYALDYWGQGTSVTVSS
VL: DIQMTQSPSSLSASLGERVSLTCRASQEISGYLSWLQQKPDGTIKRLIYAASTLDSGVPKRFSGSRSGSDYSLAISSLESEDFADYYCLQYANFPFTFGSGTKLEIK
notes: mouse IgG, kappa light chain; also called clone #34; purified antibody 34
Does B1 bind [1]?
Result: no binding (tested: 3 µg/ml)

B2: antibody 5 (antibody, V domains shown)
VH: QVTLKESGPGILQPSQTLSLTCSFSGFSLSTFGMGVGWIRQPSGKGLEWLAHIWWDDEKYYNSALKSRLTISKATSKNQAFLKIANVDTADTATYYCARISNYGSNYWYFNVWGTGTTVTVSS
VL: QVVLTQSPALMSASPGEKVTMTCSAGSSVSCMYWYQQKPGSSPRVLIYDTSNLASGVPARFTGSGSGTSYSLTISRMEAEDAASYYCQQWNSYPLTFGAGTKLELK
notes: mouse IgG, kappa light chain; also called clone #5; purified antibody 5
What does the source list for B2?
binding result [1]: no binding (tested: 3 µg/ml); binding result [2]: no binding (tested: 3 µg/ml)

B3: antibody 16 (antibody, V domains shown)
VH: QVTLKESGPGILQPSQTLSLTCSFSGFSLSTFALGVGWIRQPSGRGLEWLAHIWWDDDKYYNPALKSRLTISKDTSKNHVFLKIANVDTADTATYYCARITTYYYGMDYWGQGTSVTVSS
VL: DIVLSQSPATLSVTPGDSVSLFCRASQSIGNHLHWYQQESHASPRLLIKYASQSISGIPSRFSGSGSGTDFTLSINSVETEDFGMYFCQQSYNWPLTFGAGTKLELK
notes: mouse IgG, kappa light chain; also called clone #16; purified antibody 16
Does B3 bind [3]?
Result: no binding (tested: 3 µg/ml)
